Assay results from the Human Domainome abundance scans (Beltran et al. 2025).
± gives the uncertainty stated by the source.

B1: Tudor domain-containing protein 3, residues 554 to 611; numbered along this chain, Q9H7E2 (parent)
chain: KMWKPGDECFALYWEDNKFYRAEVEALHSSGMTAVVKFIDYGNYEEVLLSNIKPIQTE

Variants of: B1
Assay: abundance fitness (aPCA) (normalised: wild type 0, dead -1); higher = more abundant; growth selection in yeast, the domain comes from the species named
Conditions: Homo sapiens

Row | Variant | abundance fitness
1 | V47S | -0.926 ± 0.1
2 | V47F | -0.636 ± 0.17
3 | V47I | -0.134 ± 0.12
4 | V47L | -0.433 ± 0.063
5 | V47E | -0.925 ± 0.11
6 | V47T | -0.966 ± 0.17
7 | V47H | -0.733 ± 0.17
8 | V47M | -0.821 ± 0.093
9 | T57Q | 0.02 ± 0.14
10 | T57K | -0.047 ± 0.16
11 | T57Y | -0.072 ± 0.11
12 | T57E | 0.114 ± 0.092
13 | T57H | 0.06 ± 0.12
14 | T57D | 0.083 ± 0.074
15 | T57R | -0.047 ± 0.059
16 | T57G | 0.029 ± 0.055
17 | T57I | -0.036 ± 0.11
18 | T57S | 0.021 ± 0.063
19 | T57V | 0.04 ± 0.063
20 | T57A | 0.041 ± 0.065
21 | T57F | -0.123 ± 0.1

Row | Variant | abundance fitness
22 | T57C | -0.005 ± 0.085
23 | T57W | -0.272 ± 0.096
24 | T57N | 0.019 ± 0.11
25 | L48G | -0.479 ± 0.069
26 | L48Y | -0.247 ± 0.12
27 | L48H | -0.152 ± 0.1
28 | L48P | -0.077 ± 0.08
29 | L48A | -0.049 ± 0.07
30 | L48F | -0.224 ± 0.11
31 | L48N | -0.104 ± 0.11
32 | L48Q | -0.008 ± 0.09
33 | L48K | -0.1 ± 0.081
34 | L48D | -0.177 ± 0.098
35 | L48V | -0.354 ± 0.062
36 | L48R | -0.197 ± 0.053
37 | L48I | -0.408 ± 0.13
38 | L48T | -0.218 ± 0.084
39 | L48E | -0.136 ± 0.089
40 | L48W | -0.356 ± 0.071
41 | L48M | -0.113 ± 0.069
42 | E46F | -0.697 ± 0.19

Row | Variant | abundance fitness
43 | E46K | -0.205 ± 0.15
44 | E46L | -0.327 ± 0.076
45 | E46W | -0.259 ± 0.095
46 | E46C | -0.279 ± 0.099
47 | E46H | -0.308 ± 0.12
48 | E46I | -0.488 ± 0.12
49 | E46Q | -0.055 ± 0.11
50 | E46M | -0.342 ± 0.12
51 | E46P | -0.465 ± 0.11
52 | E46Y | -0.324 ± 0.11
53 | E46G | -0.88 ± 0.095
54 | E46D | -0.149 ± 0.087
55 | E46R | -0.138 ± 0.075
56 | E46S | -0.029 ± 0.076
57 | Q56I | -0.038 ± 0.092
58 | Q56S | -0.054 ± 0.064
59 | Q56C | 0.008 ± 0.082
60 | Q56T | -0.003 ± 0.087
61 | Q56L | -0.07 ± 0.057
62 | Q56K | -0.065 ± 0.096
63 | Q56G | 0.031 ± 0.056

Row | Variant | abundance fitness
64 | Q56W | -0.189 ± 0.077
65 | Q56D | -0.061 ± 0.093
66 | Q56F | -0.071 ± 0.11
67 | Q56R | -0.078 ± 0.054
68 | Q56M | -0.037 ± 0.097
69 | Q56E | 0.113 ± 0.081
70 | Q56H | 0.041 ± 0.086
71 | Q56V | -0.02 ± 0.06
72 | Q56P | 0.015 ± 0.074
73 | G42T | -0.736 ± 0.27
74 | G42W | -0.695 ± 0.089
75 | G42Q | -0.345 ± 0.15
76 | G42S | -0.378 ± 0.13
77 | G42V | -0.926 ± 0.11
78 | G42R | -0.607 ± 0.069
79 | I52T | -0.686 ± 0.14
80 | I52R | -0.938 ± 0.079
81 | I52F | -0.906 ± 0.25
82 | I52C | -0.37 ± 0.077
83 | I52D | -0.857 ± 0.13
